We go through 61 sequences from the supplement of paper PMC7877785.

± gives the uncertainty stated by the source.

The nature of this data set: self-splicing fitness, log relative to wild type (ln ratio); higher = more splicing; Tetrahymena group I intron in knt gene, E. coli kanamycin selection, DiMSum; sequences stand for … in CUCUCU…GGAGGGAAAAGUUAUCAGGCAUGCACCUGGUAGCUAGUCUUUAAACCAAUAGAUUGCAUCGGUUUAAAAGGCAAGACCGUCAAAUUGCGGGAAAGGGGUCAACAGCCGUUCAGUACCAAGUCUCAGGGGAAACUUUGAGAUGGCCUUGCAAAGGGUAUGGUAAUAAGCUGACGGACAUGGUCCUAACCACGCAGCCAAGUCCUAAGUCAACAGAUCUUCUGUUGAUAUGGAUGCAGUUCACAGACUAAAUGUCGGUCGGGGAAGAUGUAUUCUUCUCAUAAGAUAUAGUCGGACCUCUCCUUAAUGGGAGCUAGCGGAUGAAGUGAUGCAACACUGGAGCCGCUGGGAACUAAUUUGUAUGCGAAAGUAUAUUGAUUAGUUUUGGAGUACUCGUGGUCG
Summed up: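 Colonies from six replicate transformations of E. coli BL21(DE3) were pooled and amplicon-sequenced on an Illumina HiSeq 2500. The library placed an intron with all eight P1ex-region nucleotides randomised inside the knt kanamycin-resistance gene on pET-22b(+), and cells grew overnight at 37°C or 30°C on LB agar with or without 25 μg/mL kanamycin (plus 100 μg/mL carbenicillin, 50 μM IPTG, 0.2% rhamnose). Fitness is the DiMSum error-weighted combination of wild-type-normalised replicate fold changes, kanamycin versus none.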

As for AAUAAGCAAUAUUACGAGGA, the “self-splicing fitness (ln)” value was -3.05 ± 0.43 (30 °C) and -1.94 ± 0.33 (37 °C).

Consider AAUAAGCAAUAUUACGAGGG, for which the “self-splicing fitness (ln)” value runs as follows: (30 °C) -3.7 ± 0.37; (37 °C) -2.9 ± 0.34.

With AAUAAGCAAUAUUACGCAGC, the “self-splicing fitness (ln)” value was -3.5 ± 0.26 (30 °C) and -2.1 ± 0.23 (37 °C).

For AAUAAGCAAUAUUACGCAUU, the “self-splicing fitness (ln)” value (30 °C) was -2.97 ± 0.21 and the “self-splicing fitness (ln)” value (37 °C) was -2.56 ± 0.28.

On to AAUAAGCAAUAUUACGCCAA, for which the “self-splicing fitness (ln)” value is -2.17 ± 0.21 (30 °C) and -1.46 ± 0.18 (37 °C).

Turning to AAUAAGCAAUAUUACGCCAG, the “self-splicing fitness (ln)” value is -1.88 ± 0.18 (30 °C) and -0.98 ± 0.25 (37 °C).

In the case of AAUAAGCAAUAUUACGCCGC, the “self-splicing fitness (ln)” value by setting is: (30 °C) -2.65 ± 0.46; (37 °C) -1.49 ± 0.28.

In the case of AAUAAGCAAUAUUACGCCUG, the “self-splicing fitness (ln)” value was -0.724 ± 0.13 (30 °C) and 0.286 ± 0.17 (37 °C).

As for AAUAAGCAAUAUUACGCGGA, the “self-splicing fitness (ln)” value (30 °C) was -2.57 ± 0.22 and the “self-splicing fitness (ln)” value (37 °C) is -1.33 ± 0.19.

As to AAUAAGCAAUAUUACGCGUG, the “self-splicing fitness (ln)” value (30 °C) was -0.604 ± 0.071 and the “self-splicing fitness (ln)” value (37 °C) was -0.455 ± 0.089.

As for AAUAAGCAAUAUUACGGACC, the “self-splicing fitness (ln)” value (30 °C) was -1.54 ± 0.12 and the “self-splicing fitness (ln)” value (37 °C) was -0.72 ± 0.15.

Regarding AAUAAGCAAUAUUACGGCAA, the “self-splicing fitness (ln)” value is -0.158 ± 0.09 (30 °C) and -0.3 ± 0.12 (37 °C).

On to AAUAAGCAAUAUUACGUAAA, for which the “self-splicing fitness (ln)” value runs as follows: (30 °C) -1.89 ± 0.1; (37 °C) -1.22 ± 0.14.

Take AAUAAGCAAUAUUACGUCUU: the “self-splicing fitness (ln)” value by setting is: (30 °C) 0.0603 ± 0.06; (37 °C) -0.0919 ± 0.075.

Turning to AAUAAGCAAUAUUACGUGAU, the “self-splicing fitness (ln)” value reads like this: (30 °C) -2.97 ± 0.14; (37 °C) -1.23 ± 0.12.

With AAUAAGCAAUAUUACGUGGA, the “self-splicing fitness (ln)” value reads like this: (30 °C) -3.22 ± 0.22; (37 °C) -2.42 ± 0.19.

In the case of AAUAAGCAAUAUUACGUGUA, the “self-splicing fitness (ln)” value was -2.16 ± 0.12 (30 °C) and -1.12 ± 0.11 (37 °C).

As for AAUAAGCAAUAUUACGUGUC, the “self-splicing fitness (ln)” value is -3 ± 0.14 (30 °C) and -0.777 ± 0.14 (37 °C).

As for AAUCAGCAAUAUUACGAAUA, the “self-splicing fitness (ln)” value was 0.443 ± 0.16 (30 °C) and -0.266 ± 0.12 (37 °C).

On to AAUCAGCAAUAUUACGAAUC, for which the “self-splicing fitness (ln)” value is -0.973 ± 0.1 (30 °C) and 0.372 ± 0.12 (37 °C).

As for AAUCAGCAAUAUUACGACUC, the “self-splicing fitness (ln)” value runs as follows: (30 °C) -0.0136 ± 0.086; (37 °C) 0.129 ± 0.11.

Turning to AAUCAGCAAUAUUACGAGUA, the “self-splicing fitness (ln)” value is -1.43 ± 0.081 (30 °C) and 0.415 ± 0.083 (37 °C).

With AAUCAGCAAUAUUACGAUAG, the “self-splicing fitness (ln)” value is -1.3 ± 0.1 (30 °C) and -0.239 ± 0.1 (37 °C).

For AAUCAGCAAUAUUACGCACA, the “self-splicing fitness (ln)” value runs as follows: (30 °C) -0.245 ± 0.063; (37 °C) 0.0601 ± 0.085.

As to AAUCAGCAAUAUUACGCGAU, the “self-splicing fitness (ln)” value reads like this: (30 °C) -2.8 ± 0.14; (37 °C) -2.07 ± 0.14.

In the case of AAUCAGCAAUAUUACGCUGG, the “self-splicing fitness (ln)” value is, setting by setting: (30 °C) -2.63 ± 0.099; (37 °C) -2.87 ± 0.087.

On to AAUCAGCAAUAUUACGCUGU, for which the “self-splicing fitness (ln)” value reads like this: (30 °C) -3.28 ± 0.14; (37 °C) -1.59 ± 0.11.

For the sequence AAUCAGCAAUAUUACGGAGC, the “self-splicing fitness (ln)” value was -2.64 ± 0.17 (30 °C) and -0.807 ± 0.16 (37 °C).

For AAUCAGCAAUAUUACGGCAC, the “self-splicing fitness (ln)” value is -0.508 ± 0.086 (30 °C) and -0.24 ± 0.12 (37 °C).

Consider AAUCAGCAAUAUUACGGCUU, for which the “self-splicing fitness (ln)” value amounted to 0.103 ± 0.067 (30 °C) and 0.17 ± 0.077 (37 °C).

Consider AAUCAGCAAUAUUACGGGCG, for which the “self-splicing fitness (ln)” value runs as follows: (30 °C) -0.742 ± 0.059; (37 °C) -0.382 ± 0.075.

Take AAUCAGCAAUAUUACGGUGU: the “self-splicing fitness (ln)” value by setting is: (30 °C) 0.0362 ± 0.059; (37 °C) 0.393 ± 0.072.

As for AAUCAGCAAUAUUACGUAAC, the “self-splicing fitness (ln)” value was -1.33 ± 0.11 (30 °C) and -0.141 ± 0.11 (37 °C).

With AAUCAGCAAUAUUACGUCGG, the “self-splicing fitness (ln)” value (30 °C) was -1.88 ± 0.1 and the “self-splicing fitness (ln)” value (37 °C) is -1.02 ± 0.14.

In the case of AAUCAGCAAUAUUACGUGCA, the “self-splicing fitness (ln)” value by setting is: (30 °C) -0.181 ± 0.067; (37 °C) 0.221 ± 0.084.

Consider AAUCAGCAAUAUUACGUGGA, for which the “self-splicing fitness (ln)” value is, setting by setting: (30 °C) -0.585 ± 0.072; (37 °C) -0.433 ± 0.076.

In the case of AAUCAGCAAUAUUACGUGUA, the “self-splicing fitness (ln)” value was -0.538 ± 0.058 (30 °C) and 0.135 ± 0.068 (37 °C).

In the case of AAUCAGCAAUAUUACGUUAA, the “self-splicing fitness (ln)” value is, setting by setting: (30 °C) -0.816 ± 0.072; (37 °C) -0.587 ± 0.077.

As to AAUGAGCAAUAUUACGAAGG, the “self-splicing fitness (ln)” value runs as follows: (30 °C) -2.56 ± 0.43; (37 °C) -3.54 ± 0.43.

As for AAUGAGCAAUAUUACGAAGU, the “self-splicing fitness (ln)” value (37 °C) was -2.16 ± 0.33.

As to AAUGAGCAAUAUUACGAGUA, the “self-splicing fitness (ln)” value reads like this: (30 °C) -3.91 ± 0.25; (37 °C) -2.54 ± 0.27.

Take AAUGAGCAAUAUUACGCAAA: the “self-splicing fitness (ln)” value (37 °C) is -2.46 ± 0.48.

As for AAUGAGCAAUAUUACGCACA, the “self-splicing fitness (ln)” value was -2.31 ± 0.29 (30 °C) and -1.38 ± 0.2 (37 °C).

Take AAUGAGCAAUAUUACGCCAC: the “self-splicing fitness (ln)” value (30 °C) is -1.83 ± 0.22 and the “self-splicing fitness (ln)” value (37 °C) was -2.41 ± 0.49.

For AAUGAGCAAUAUUACGCCAU, the “self-splicing fitness (ln)” value was -2.37 ± 0.39 (30 °C) and -1.9 ± 0.48 (37 °C).

For the sequence AAUGAGCAAUAUUACGCCUA, the “self-splicing fitness (ln)” value is, setting by setting: (30 °C) -1.13 ± 0.21; (37 °C) -1.62 ± 0.25.

For AAUGAGCAAUAUUACGCCUU, the “self-splicing fitness (ln)” value runs as follows: (30 °C) -2.11 ± 0.13; (37 °C) -1.43 ± 0.15.

Turning to AAUGAGCAAUAUUACGCGAC, the “self-splicing fitness (ln)” value (37 °C) is -1.67 ± 0.48.

AAUGAGCAAUAUUACGCUAG: under “37 °C”, the “self-splicing fitness (ln)” value was -1.93 ± 0.36.

Regarding AAUGAGCAAUAUUACGUAAC, the “self-splicing fitness (ln)” value (30 °C) is -3.92 ± 0.27 and the “self-splicing fitness (ln)” value (37 °C) was -2.45 ± 0.21.

As to AAUGAGCAAUAUUACGUGAU, the “self-splicing fitness (ln)” value is, setting by setting: (30 °C) -3.8 ± 0.29; (37 °C) -0.708 ± 0.2.

As for AAUGAGCAAUAUUACGUUCA, the “self-splicing fitness (ln)” value by setting is: (30 °C) -1.46 ± 0.12; (37 °C) -0.27 ± 0.13.

With AAUGAGCAAUAUUACGUUGG, the “self-splicing fitness (ln)” value is -3.18 ± 0.23 (30 °C) and -3.55 ± 0.27 (37 °C).

As for AAUGAGCAAUAUUACGUUUC, the “self-splicing fitness (ln)” value (30 °C) was -4.31 ± 0.24 and the “self-splicing fitness (ln)” value (37 °C) is -2.98 ± 0.25.

Take AAUUAGCAAUAUUACGAAUC: the “self-splicing fitness (ln)” value was -2.34 ± 0.16 (30 °C) and -0.829 ± 0.16 (37 °C).

Consider AAUUAGCAAUAUUACGAAUG, for which the “self-splicing fitness (ln)” value by setting is: (30 °C) -1.55 ± 0.12; (37 °C) 0.187 ± 0.14.

For the sequence AAUUAGCAAUAUUACGACCA, the “self-splicing fitness (ln)” value by setting is: (30 °C) -0.406 ± 0.1; (37 °C) 0.48 ± 0.12.

Take AAUUAGCAAUAUUACGACUC: the “self-splicing fitness (ln)” value (30 °C) is -0.246 ± 0.11 and the “self-splicing fitness (ln)” value (37 °C) amounted to 0.0749 ± 0.16.

As to AAUUAGCAAUAUUACGAGUU, the “self-splicing fitness (ln)” value is -1.48 ± 0.12 (30 °C) and -1.28 ± 0.15 (37 °C).

AAUUAGCAAUAUUACGAUAC: the “self-splicing fitness (ln)” value is -1.24 ± 0.36 (30 °C) and -0.477 ± 0.21 (37 °C).

For the sequence AAUUAGCAAUAUUACGAUGA, the “self-splicing fitness (ln)” value reads like this: (30 °C) -0.632 ± 0.094; (37 °C) -0.429 ± 0.11.
